# Test results: US20240083958A1, “G PROTEIN PEPTIDOMIMETICS” (VRIJE UNIVERSITEIT BRUSSEL, priority 2020, published 2024)
# Bridge positions count the residues as written; N and C are the ends. Square brackets hold non-standard residues; d marks the D form. Primed or numbered codes have the meaning given here. Azk = residue with azidated side chain, clicked to Pra; Pra′ = residue with alkynyl side chain, clicked to Azk; Lys(N3) = [N-]=[N+]=NCCCC[C@H](N)C(=O)O; Cha = N[C@@H](CC1CCCCC1)C(=O)O; Pra = C#CC[C@H](N)C(=O)O
# Key:
# [1] = target: dopamine 1 receptor (D1R) (Homo sapiens, UniProt P21728); experiment: GPCR-radioligand binding assay (RLA) with dopamine 1 receptor (D1R), [3H]-SCH23390 as radiolabelled antagonist, A-77636 (agonist), in presence and absence of the peptidomimetic; conditions: Table 19; peptidomimetic at 10 μM; ratio IC50 D1R alone / IC50 D1R + peptidomimetic
# Description: For the radioligand assays on D1R a similar buffer, as for β2AR, was used for the ligands, membrane extracts and peptides (+1% DMSO). The competition assay was performed with [^3H]-SCH23390 as radiolabelled antagonist, at a concentration of 2 nM. A ten-fold dilution series of the agonist, A-77636, was prepared to obtain a dose response curve, starting from 100 μM for the receptor alone and 10 μM in the presence of the peptidomimetics. After incubation, the samples were harvested into filter plates, pre-soaked with 0.5% polyethylenimine (PEI), and washed with ice cold washing buffer using the 96-well harvester. After drying in the oven during 1 h and the addition of scintillation liquid, the plates were placed in the MICROBETA® scintillation counter and incubated for 30 min in the dark before reading.
# (§1) After the Microbeta scintillation counter, the experimental data was further analyzed using Graphpad Prism 6.0. After normalization of the raw data, a nonlinear regression was used to fit the data in a one-site binding model, with the total binding set as 100% and the non-specific binding between 0 and 5%. The IC50 values, obtained from the competition curves, were used to determine the shift for each peptide, which is the ratio of IC50 of the agonist test compound on the basal conformation (e.g. IC50 β2AR with no peptidomimetic) versus the active conformation (e.g. IC50 β2AR+peptidomimetic) of the receptor. For certain peptide analogues, a biphasic binding curve was observed and therefore fitted by a two-site model (nonlinear regression), resulting in two IC50 values (IC50Hi and IC50Lo) and a FractionHi, the fraction of receptors in the active state.
# Peptidomimetics were screened using GPCR-radioligand binding assay (RLA) with dopamine 1 receptor (D1R) binding, using [^3H]-SCH23390 as radiolabelled antagonist, and increasing concentrations of A-77636 (agonist). The half maximal inhibitory concentration (IC50) represents the affinity of the agonist for the receptor. The selectivity is quantified by the shift. “[ ]” denotes cyclic peptides.
# [2] = target: T1, human β2AR (Homo sapiens, UniProt P07550, N187E); experiment: Radioligand binding assay (RLA) with human β2AR, 3H-dihydroalprenolol (DHA) as radioligand, isoproterenol (agonist) as cold competitor, in presence and absence of the peptidomimetic
# T1 construct: made in house; host or cells: Sf9 insect cells (Bac-to-Bac baculovirus); membrane extracts
# Description: β2AR365N constructs were expressed in Sf9 insect cells, using the Bac-to-Bac® Baculovirus Expression System. The membrane extracts were prepared from cells that expressed β2AR. Subsequently, the cell pellet was resuspended in a buffer (1 ml buffer/2×1E7 cells) containing 75 mM Tris pH 7.4, 12.5 mM MgCl2, 1 mM EDTA, Leupeptin and PMSF as protease inhibitors. Afterwards the cells were vortexed and homogenized in ice using a small volume Ultraturrax (6×10 sec). The cells were then centrifuged for 15 min at 16000 rcf, in a pre-cooled centrifuge (4° C.) and resuspended in the previous buffer containing 10% sucrose. Finally, the membranes were again homogenized in ice with the small volume Ultraturrax (3×10 sec). The protein concentration in the membrane fragments was determined using a Pierce BCA Protein Assay Kit and the protein concentration was extrapolated from the Bovine Serum Albumine standard curve.
# To perform the radioligand competition binding assays, 96-well plates were used. For the assays on β2AR, the membrane extracts as well as the peptides were prepared in a binding buffer (75 mM Tris pH 7.4, 12.5 mM MgCl2, 1 mM EDTA, 0.2% BSA). The ligand (isoproterenol) and radioligand ([^3H]-dihydroalprenolol) were dissolved in ligand buffer (75 mM Tris pH 7.4, 12.5 mM MgCl2, 1 mM EDTA, 0.2% BSA and 0.1% ascorbic acid), at 1 mM and 2 nM, respectively. A ten-fold dilution series of the ligand was prepared to obtain a dose response curve. For each reaction 100 μl membrane extract, 50 μl ligand, 50 μl peptide or binding buffer containing 1% DMSO and 50 μl of radioligand was added to the V-bottom storage plate, with a total volume of 250 μl per well. Afterwards, the plates were incubated at room temperature for 2 h on a plate shaker (150 rpm). The samples were harvested into filter plates and washed with ice cold washing buffer (75 mM Tris pH 7,4) using the 96-well harvester. The plates were dried for 1 h at 50° C. and then sealed to allow the addition of 30 μl scintillation liquid to each well. Finally, the top of each plate was sealed and the plates were placed in a Wallac MICROBETA® Trilux scintillation counter and incubated for 30 min in the dark.
# as §1
# Synthesised peptidomimetics were evaluated using a radioligand binding assay (RLA) with a human β2AR, using ^3H-dihydroalprenolol (DHA) as the radioligand and increasing concentrations of isoproterenol (agonist) as cold competitor. In particular, the pharmacological stabilization of the receptor in the active conformation was evaluated by performing the radioligand displacement assay (RLA) in the presence and absence of the peptidomimetics. This validated assay quantifies the pharmacological stabilization of the receptor in the active conformation by comparing the affinities of an agonist for the basal versus the active GPCR conformer (Pardon et al. (2018) Angewandte Chemie International Edition 57, 5292-5295). During the assay, the binding affinity of an orthosteric agonist for the receptor, in particular isoproterenol for human β2AR, in presence and absence of the allosteric peptidomimetic was determined. […]
# [3] = target: human β2AR (human, UniProt P07550 2-365); experiment: cell-based or functional assay
# Sequence of dopamine 1 receptor (D1R) (P21728 whole entry): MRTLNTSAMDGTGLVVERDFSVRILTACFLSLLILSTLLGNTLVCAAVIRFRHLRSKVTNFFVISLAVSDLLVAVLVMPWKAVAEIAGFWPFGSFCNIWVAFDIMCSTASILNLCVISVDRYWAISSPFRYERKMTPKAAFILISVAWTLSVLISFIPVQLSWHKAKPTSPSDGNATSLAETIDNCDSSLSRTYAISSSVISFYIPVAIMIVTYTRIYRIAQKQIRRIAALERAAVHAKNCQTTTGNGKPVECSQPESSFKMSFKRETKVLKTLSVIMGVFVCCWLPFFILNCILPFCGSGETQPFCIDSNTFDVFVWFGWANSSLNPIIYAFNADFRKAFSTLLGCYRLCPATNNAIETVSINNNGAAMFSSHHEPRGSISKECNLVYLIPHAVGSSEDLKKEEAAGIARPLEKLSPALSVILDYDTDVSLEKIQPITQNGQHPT
substance,measurement,setting,value
Ac-KKKFN[PraCRDAzk]IQRMHLRQYELL-OH (Ac-KKKFN[Pra]CRD[Lys(N3)]IQRMHLRQYELL-OH; triazole 6-10) [compound 42],Shift,[1],32
"FNDCRDIIQRMHLRQYELL [compound 2, Ac-FNDCRDIIQRMHLRQYELL-OH]",Shift,"[2]; Table 1, ratio IC50 β2AR alone / IC50 β2AR + peptidomimetic",6
same,Shift,[1],2
Nb80 (VHH),"IC50 (nM) of isoproterenol, [3H]-DHA RLA, Nb80 present",[3],9.7 nM
same,Shift,[3],146
Ac-KKKFN[PraCRDAzk]IQRMHLRQYEChaL-OH (Ac-KKKFN[Pra′]CRD[Azk]IQRMHLRQYE[Cha]L-OH; triazole 6-10) [compound 51],Fraction HI (%),"[2]; Table 10, peptidomimetic at 1 μM (printed 511 μM), fraction of receptors in the active state",54%
same,Fraction HI (%),"[2]; Table 10, peptidomimetic at 10 μM, fraction of receptors in the active state",76%
same,Shift,"[2]; Table 10, peptidomimetic at 10 μM, ratio IC50 β2AR alone / + peptidomimetic",175
same,Fraction HI (%),"[2]; Table 10, peptidomimetic at 50 μM, fraction of receptors in the active state",79%
same,Shift,"[2]; Table 10, peptidomimetic at 50 μM, ratio IC50 β2AR alone / + peptidomimetic",170
same,Fraction HI (%),"[2]; Table 10, peptidomimetic at 100 μM, fraction of receptors in the active (high affinity) state, two-site model",77%
same,Shift,"[2]; Table 10, peptidomimetic at 100 μM, ratio IC50 β2AR alone / + peptidomimetic",345
same,Shift,"[2]; Table 10, ratio IC50 β2AR alone / + peptidomimetic",21
same,Shift,[1],52
Ac-FNDCRDIIQRMHLRQYEChaL-OH (FNDCRDIIQRMHLRQYEXL; HELM PEPTIDE1{[ac].F.N.D.C.R.D.I.I.Q.R.M.H.L.R.Q.Y.E.[Cha].L}$$$$V2.0; SMILES CC[C@H](C)[C@H](NC(=O)[C@H](CC(=O)O)NC(=O)[C@H](CCCNC(=N)N)NC(=O)[C@H](CS)NC(=O)[C@H](CC(=O)O)NC(=O)[C@H](CC(N)=O)NC(=O)[C@H](Cc1ccccc1)NC(C)=O)C(=O)N[C@H](C(=O)N[C@@H](CCC(N)=O)C(=O)N[C@@H](CCCNC(=N)N)C(=O)N[C@@H](CCSC)C(=O)N[C@@H](Cc1c[nH]cn1)C(=O)N[C@@H](CC(C)C)C(=O)N[C@@H](CCCNC(=N)N)C(=O)N[C@@H](CCC(N)=O)C(=O)N[C@@H](Cc1ccc(O)cc1)C(=O)N[C@@H](CCC(=O)O)C(=O)N[C@@H](CC1CCCCC1)C(=O)N[C@@H](CC(C)C)C(=O)O)[C@@H](C)CC) [compound 63],Shift,[1],24
